Measured values reported in patent US20210284734A1 (SYMPHOGEN A S, published 2021).

How the values were obtained:
Test in all cases: SPR, Fab on captured PD-1-Fc;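 also: Alanine-scan PD-1 Fc fusions expressed transiently in ExpiCHO, captured on anti-human IgG Fc surface in IBIS MX96, anti-PD-1 Fab association 15 min, dissociation 30 min, Langmuir 1:1 fit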
human PD-1 ECD-Fc Q133A = target: T1, human PD-1 ECD-Fc Q133A (human, UniProt Q15116 21-170)
T1 construct: not shown: human IgG1 Fc, residues P101-K330
T1 sequence (Q15116 21-170 Q133A): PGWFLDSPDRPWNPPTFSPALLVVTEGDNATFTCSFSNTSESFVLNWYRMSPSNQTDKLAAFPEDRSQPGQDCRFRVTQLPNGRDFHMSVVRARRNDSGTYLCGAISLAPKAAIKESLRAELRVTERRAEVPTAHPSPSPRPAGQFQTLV

human PD-1 ECD-Fc P21A = target: T2, human PD-1 ECD-Fc P21A (human, UniProt Q15116 22-170)
T2 construct: not shown: human IgG1 Fc, residues P101-K330
T2 sequence (Q15116 21-170 P21A): as the sequence (Q15116 21-170 Q133A) above, with P1A, A113Q counted along it

human PD-1 ECD-Fc N66A = target: T3, human PD-1 ECD-Fc N66A (human, UniProt Q15116 21-170)
T3 construct: not shown: human IgG1 Fc, residues P101-K330
T3 sequence (Q15116 21-170 N66A): as the sequence (Q15116 21-170 Q133A) above, with N46A, A113Q counted along it

human PD-1 ECD-Fc Y68A = target: T4, human PD-1 ECD-Fc Y68A (human, UniProt Q15116 21-170)
T4 construct: not shown: human IgG1 Fc, residues P101-K330
T4 sequence (Q15116 21-170 Y68A): as the sequence (Q15116 21-170 Q133A) above, with Y48A, A113Q counted along it

human PD-1 ECD-Fc E150A = target: T5, human PD-1 ECD-Fc E150A (human, UniProt Q15116 21-170)
T5 construct: not shown: human IgG1 Fc, residues P101-K330
T5 sequence (Q15116 21-170 E150A): as the sequence (Q15116 21-170 Q133A) above, with A113Q, E130A counted along it

human PD-1 ECD-Fc S157R = target: T6, human PD-1 ECD-Fc S157R (human, UniProt Q15116 21-170)
T6 construct: also called Rat mutation S157R; not shown: human IgG1 Fc, residues P101-K330
T6 sequence (Q15116 21-170 S157R): as the sequence (Q15116 21-170 Q133A) above, with A113Q, S137R counted along it

human PD-1 ECD-Fc A132G = target: T7, human PD-1 ECD-Fc A132G (human, UniProt Q15116 21-170)
T7 construct: not shown: human IgG1 Fc, residues P101-K330
T7 sequence (Q15116 21-170 A132G): as the sequence (Q15116 21-170 Q133A) above, with A112G, A113Q counted along it

human PD-1 ECD-Fc P158A = target: T8, human PD-1 ECD-Fc P158A (human, UniProt Q15116 21-170)
T8 construct: not shown: human IgG1 Fc, residues P101-K330
T8 sequence (Q15116 21-170 P158A): as the sequence (Q15116 21-170 Q133A) above, with A113Q, P138A counted along it

human PD-1 ECD-Fc P156A = target: T9, human PD-1 ECD-Fc P156A (human, UniProt Q15116 21-170)
T9 construct: not shown: human IgG1 Fc, residues P101-K330
T9 sequence (Q15116 21-170 P156A): as the sequence (Q15116 21-170 Q133A) above, with A113Q, P136A counted along it

human PD-1 ECD-Fc L138A = target: T10, human PD-1 ECD-Fc L138A (human, UniProt Q15116 21-170)
T10 construct: not shown: human IgG1 Fc, residues P101-K330

human PD-1 ECD-Fc N102A = target: T11, human PD-1 ECD-Fc N102A (human, UniProt Q15116 21-170)
T11 construct: not shown: human IgG1 Fc, residues P101-K330
T11 sequence (Q15116 21-170 N102A): as the sequence (Q15116 21-170 Q133A) above, with N82A, A113Q counted along it

human PD-1 ECD-Fc E84A = target: T12, human PD-1 ECD-Fc E84A (human, UniProt Q15116 21-170)
T12 construct: not shown: human IgG1 Fc, residues P101-K330

human PD-1 ECD-Fc A40T = target: T13, human PD-1 ECD-Fc A40T (human, UniProt Q15116 21-170)
T13 construct: also called Rat mutation A40T; not shown: human IgG1 Fc, residues P101-K330

human PD-1 ECD-Fc A80G = target: T14, human PD-1 ECD-Fc A80G (human, UniProt Q15116 21-170)
T14 construct: not shown: human IgG1 Fc, residues P101-K330
T14 sequence (Q15116 21-170 A80G): as the sequence (Q15116 21-170 Q133A) above, with A60G, A113Q counted along it

human PD-1 ECD-Fc D92A = target: T15, human PD-1 ECD-Fc D92A (human, UniProt Q15116 21-170)
T15 construct: not shown: human IgG1 Fc, residues P101-K330
T15 sequence (Q15116 21-170 D92A): as the sequence (Q15116 21-170 Q133A) above, with D72A, A113Q counted along it

human PD-1 ECD-Fc Q91A = target: T16, human PD-1 ECD-Fc Q91A (human, UniProt Q15116 21-170)
T16 construct: not shown: human IgG1 Fc, residues P101-K330
T16 sequence (Q15116 21-170 Q91A): as the sequence (Q15116 21-170 Q133A) above, with Q71A, A113Q counted along it

human PD-1 ECD-Fc T145A = target: T17, human PD-1 ECD-Fc T145A (human, UniProt Q15116 21-170)
T17 construct: not shown: human IgG1 Fc, residues P101-K330

human PD-1 ECD-Fc K78A = target: T18, human PD-1 ECD-Fc K78A (human, UniProt Q15116 21-170)
T18 construct: not shown: human IgG1 Fc, residues P101-K330
T18 sequence (Q15116 21-170 K78A): as the sequence (Q15116 21-170 Q133A) above, with K58A, A113Q counted along it

human PD-1 ECD-Fc S27A = target: T19, human PD-1 ECD-Fc S27A (human, UniProt Q15116 21-170)
T19 construct: not shown: human IgG1 Fc, residues P101-K330
T19 sequence (Q15116 21-170 S27A): as the sequence (Q15116 21-170 Q133A) above, with S7A, A113Q counted along it

human PD-1 ECD-Fc E146A = target: T20, human PD-1 ECD-Fc E146A (human, UniProt Q15116 21-170)
T20 construct: not shown: human IgG1 Fc, residues P101-K330
T20 sequence (Q15116 21-170 E146A): as the sequence (Q15116 21-170 Q133A) above, with A113Q, E126A counted along it

human PD-1 ECD-Fc S57A = target: T21, human PD-1 ECD-Fc S57A (human, UniProt Q15116 21-170)
T21 construct: not shown: human IgG1 Fc, residues P101-K330
T21 sequence (Q15116 21-170 S57A): as the sequence (Q15116 21-170 Q133A) above, with S37A, A113Q counted along it

human PD-1 ECD-Fc G47A = target: T22, human PD-1 ECD-Fc G47A (human, UniProt Q15116 21-170)
T22 construct: not shown: human IgG1 Fc, residues P101-K330

human PD-1 ECD-Fc K135A = target: T23, human PD-1 ECD-Fc K135A (human, UniProt Q15116 21-170)
T23 construct: not shown: human IgG1 Fc, residues P101-K330
T23 sequence (Q15116 21-170 K135A): as the sequence (Q15116 21-170 Q133A) above, with A113Q, K115A counted along it

human PD-1 ECD-Fc Q75A = target: T24, human PD-1 ECD-Fc Q75A (human, UniProt Q15116 21-170)
T24 construct: not shown: human IgG1 Fc, residues P101-K330
T24 sequence (Q15116 21-170 Q75A): as the sequence (Q15116 21-170 Q133A) above, with Q55A, A113Q counted along it

human PD-1 ECD-Fc N33A = target: T25, human PD-1 ECD-Fc N33A (human, UniProt Q15116 21-170)
T25 construct: not shown: human IgG1 Fc, residues P101-K330

human PD-1 ECD-Fc F56A = target: T26, human PD-1 ECD-Fc F56A (human, UniProt Q15116 21-170)
T26 construct: not shown: human IgG1 Fc, residues P101-K330
T26 sequence (Q15116 21-170 F56A): as the sequence (Q15116 21-170 Q133A) above, with F36A, A113Q counted along it

human PD-1 ECD-Fc G124A = target: T27, human PD-1 ECD-Fc G124A (human, UniProt Q15116 21-170)
T27 construct: not shown: human IgG1 Fc, residues P101-K330
T27 sequence (Q15116 21-170 G124A): as the sequence (Q15116 21-170 Q133A) above, with G104A, A113Q counted along it

human PD-1 ECD-Fc N49A = target: T28, human PD-1 ECD-Fc N49A (human, UniProt Q15116 21-170)
T28 construct: not shown: human IgG1 Fc, residues P101-K330
T28 sequence (Q15116 21-170 N49A): as the sequence (Q15116 21-170 Q133A) above, with N29A, A113Q counted along it

human PD-1 ECD-Fc P72A = target: T29, human PD-1 ECD-Fc P72A (human, UniProt Q15116 21-170)
T29 construct: not shown: human IgG1 Fc, residues P101-K330
T29 sequence (Q15116 21-170 P72A): as the sequence (Q15116 21-170 Q133A) above, with P52A, A113Q counted along it

KD mutant/KD wild-type (human PD-1 ECD-Fc Q133A): 0.9 ratio
KD mutant/KD wild-type (human PD-1 ECD-Fc P21A): 1.1 ratio
KD mutant/KD wild-type (human PD-1 ECD-Fc N66A): 1 ratio
KD mutant/KD wild-type (human PD-1 ECD-Fc Y68A): 0.8 ratio
KD mutant/KD wild-type (human PD-1 ECD-Fc E150A): 1 ratio
KD mutant/KD wild-type (human PD-1 ECD-Fc S157R): 1 ratio
KD mutant/KD wild-type (human PD-1 ECD-Fc A132G): 1 ratio
KD mutant/KD wild-type (human PD-1 ECD-Fc P158A): 1 ratio
KD mutant/KD wild-type (human PD-1 ECD-Fc P156A): 1.5 ratio
KD mutant/KD wild-type (human PD-1 ECD-Fc L138A): 1.2 ratio
KD mutant/KD wild-type (human PD-1 ECD-Fc N102A): 0.7 ratio
KD mutant/KD wild-type (human PD-1 ECD-Fc E84A): 1 ratio
KD mutant/KD wild-type (human PD-1 ECD-Fc A40T): 0.6 ratio
KD mutant/KD wild-type (human PD-1 ECD-Fc A80G): 1 ratio
KD mutant/KD wild-type (human PD-1 ECD-Fc D92A): 0.9 ratio
KD mutant/KD wild-type (human PD-1 ECD-Fc Q91A): 1 ratio
KD mutant/KD wild-type (human PD-1 ECD-Fc T145A): 82.4 ratio
KD mutant/KD wild-type (human PD-1 ECD-Fc K78A): 1.1 ratio
KD mutant/KD wild-type (human PD-1 ECD-Fc S27A): 1.1 ratio
KD mutant/KD wild-type (human PD-1 ECD-Fc E146A): 1 ratio
KD mutant/KD wild-type (human PD-1 ECD-Fc S57A): 1.1 ratio
KD mutant/KD wild-type (human PD-1 ECD-Fc G47A): 0.6 ratio
KD mutant/KD wild-type (human PD-1 ECD-Fc K135A): 1.2 ratio
KD mutant/KD wild-type (human PD-1 ECD-Fc Q75A): 0.9 ratio
KD mutant/KD wild-type (human PD-1 ECD-Fc N33A): 1 ratio
KD mutant/KD wild-type (human PD-1 ECD-Fc F56A): 0.8 ratio
KD mutant/KD wild-type (human PD-1 ECD-Fc G124A): 1 ratio
KD mutant/KD wild-type (human PD-1 ECD-Fc N49A): 1 ratio
KD mutant/KD wild-type (human PD-1 ECD-Fc P72A): 1 ratio
B1: 13112.15380 Fab (Fab, V domains shown)
VH: EVQLLESGGGLVQPGGSLRLSCAASGFTFSSYNMFWVRQAPGKGLEFVAEISGSNTGSRTWYAPAVKGRATISRDNSKNTLYLQMNSLRAEDTAVYYCAKSIYGGYCAGGYSCGVGLIDAWGQGTLVTVSS
VL: SYELTQDPAVSVALGQTVRITCSGGSSDYYGWFQQKPGQAPVTVIYYNNKRPSDIPDRFSGSSSGNTASLTITGAQAEDEADYYCGNADSSVGVFGSGTKVTVL
